# Experimental data: patent publication US20230134571A1 (INTERNATIONAL AIDS VACCINE INITIATIVE, published 2023)
# Tests used:
# Assay in all cases: cell-based or functional assay
# [1] = biological target: HIV Env, isolate BF1266.431a (HIV)
# [2] = biological target: HIV Env, isolate CAP210.2.00.E8 (HIV)
# [3] = biological target: HIV Env, isolate Du156.12 (HIV)
# [4] = biological target: HIV Env, isolate ZM135M.PL10a (HIV)
# [5] = biological target: HIV Env, isolate 62357_14_D3_4589 (HIV)
# [6] = biological target: HIV Env, isolate AC10.0.29 (HIV)
# [7] = biological target: HIV Env, isolate CNE53 (HIV)
# [8] = biological target: HIV Env, isolate ZM197M.PB7 (HIV)
# [9] = biological target: HIV Env, isolate ZM109F.PB4 (HIV)
# [10] = biological target: HIV Env, isolate RHPA4259.7 (HIV)
# [11] = biological target: HIV Env, isolate CNE52 (HIV)
# [12] = biological target: HIV Env, isolate A07412M1.vrc12 (HIV)
Binder,IC80 (µg/ml) with constrains [1] [µg/mL],IC80 (µg/ml) with constrains [2] [µg/mL],IC80 (µg/ml) with constrains [3] [µg/mL],IC80 (µg/ml) with constrains [4] [µg/mL],IC80 (µg/ml) with constrains [5] [µg/mL],IC80 (µg/ml) with constrains [6] [µg/mL],IC80 (µg/ml) with constrains [7] [µg/mL],IC80 (µg/ml) with constrains [8] [µg/mL],IC80 (µg/ml) with constrains [9] [µg/mL],IC80 (µg/ml) with constrains [10] [µg/mL],IC80 (µg/ml) with constrains [11] [µg/mL],IC80 (µg/ml) with constrains [12] [µg/mL]
"ePGDM9 (antibody, V domains shown) VH: QAQLVQSGPEVRKPGTSVKVSCKNPGNTLTTYDLHWVRQVPGQGLQWMGWISHEGDKKVIVERFKAKVTIDWDRSTNTAYLQLSGLTSEDTAVYYCAKGSKHRLRDYALYDEDGALNWAVDVDYLANLEFWGQGTAVTVSS VL: DIVLTQSPLSLSVTPGESASISCKSSQSLIHGDRNNYLAWYVQKPGRSPQLLIDLASERASGVPDRFSGSGSRKDFTLKISRVETEDVGTYYCMQGRESPWTFGQGTKVDIK",0.008,0.221,0.016,> 100,38,0.298,0.029,0.092,0.106,0.578,7.39,0.103
"ePGDM5 (antibody, V domains shown) VH: QAQLVQSGPEVRKPGTSVKVSCKNPGNTLTTYDLHWVRQVPGQGLQWMGWISHEGDKKVIVERFKAKVTIDWDRSTNTAYLQLSGLTSEDTAVYYCAKGSKHRLRDYALYDEDGALNWAVDVDYLANLEFWGQGTAVTVSS VL: DFVLTQSPLSLSVTPGESASISCKSDHSLQHGDRNNYLAWYVQKPGRSPQLLIDLASERASGVPDRFSGSGSRKDFTLKIDRVEAEDVGTYYCMQGRESPWTFGQGTKVDIK",0.014,0.226,0.026,> 100,39.9,1.1,0.081,0.141,0.121,1.86,24.6,0.035
"ePGDM13 (antibody, V domains shown) VH: QAQLVQSGPEVRKPGTSVKVSCKNPGNTLTTYDLHWVRQVPGQGLQWMGWISHEGDKKVIVERFKAKVTIDWDRSTNTAYLQLSGLTSEDTAVYYCAKGSKHRLRDYALYDEDGALNWAVDVDYLANLEFWGQGTAVTVSS VL: DIVLTQSPLSLSVTPGESASISCKSSHSLQHGDRNNYLAWYVQKPGRSPQLLLDLASERASGVPDRFSGSGSEKDFTLKISRVETEDVGTYYCMQGRESPWTFGQGTKVDIK",0.016,0.538,0.026,> 100,69.5,0.776,0.059,0.24,0.196,1.43,11.3,0.118
"PGDM1400 (antibody, V domains shown) VH: QVHLTQSGPEVRKPGTSVKVSCKAPGNTLKTYDLHWVRSVPGQGLQWMGWISHEGDKKVIVERFKAKVTIDWDRSTNTAYLQLSGLTSGDTAVYYCAKGSKHRLRDYALYDDDGALNWAVDVDYLSNLEFWGQGTAVTVSS VL: DFVLTQSPHSLSVTPGESASISCKSSHSLIHGDRNNYLAWYVQKPGRSPQLLIYLASSRASGVPDRFSGSGSDKDFTLKISRVETEDVGTYYCMQGRESPWTFGQGTKVDIK",0.024,1.32,0.025,> 100,> 100,2.19,0.105,0.282,0.39,1.96,> 100,0.115
